We go through 40 molecules from PMC12416549 (2024).

T1: TNFR1 (Homo sapiens, UniProt P19438)
T1 chain: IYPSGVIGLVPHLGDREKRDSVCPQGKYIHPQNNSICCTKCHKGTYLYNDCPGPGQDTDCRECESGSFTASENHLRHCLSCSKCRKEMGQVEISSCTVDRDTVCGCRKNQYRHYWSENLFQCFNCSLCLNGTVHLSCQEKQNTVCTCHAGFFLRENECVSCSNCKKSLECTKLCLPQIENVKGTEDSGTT

B1: L40K (designed binder)
chain: SMEEEVEKAAKEYEKKKKEAIEKHLEKLKAKDKEAAERFKKELEEAAKEYAKDEAKTMSEEEAKRRAKKYKEKVLLSELSEEEQKEIKEAEEKLVRTILKYVEEAAK
B2: L75N (designed binder)
chain: B1 chain with K40L, L75N
B3: A51P (designed binder)
chain: B1 chain with K40L, A51P
B4: A67Y (designed binder)
chain: B1 chain with K40L, A67Y
B5: E19F (designed binder)
chain: B1 chain with E19F, K40L
B6: E7N (designed binder)
chain: B1 chain with E7N, K40L
B7: E82N (designed binder)
chain: B1 chain with K40L, E82N
B8: E54N (designed binder)
chain: B1 chain with K40L, E54N
B9: L75A (designed binder)
chain: B1 chain with K40L, L75A
B10: E72C (designed binder)
chain: B1 chain with K40L, E72C
B11: D32V (designed binder)
chain: B1 chain with D32V, K40L
B12: K100P (designed binder)
chain: B1 chain with K40L, K100P
B13: K16T (designed binder)
chain: B1 chain with K16T, K40L
B14: K52P (designed binder)
chain: B1 chain with K40L, K52P
B15: E60C (designed binder)
chain: B1 chain with K40L, E60C
B16: A20E (designed binder)
chain: B1 chain with A20E, K40L
B17: E14P (designed binder)
chain: B1 chain with E14P, K40L
B18: A55V (designed binder)
chain: B1 chain with K40L, A55V
B19: E14K (designed binder)
chain: B1 chain with E14K, K40L
B20: K41Q (designed binder)
chain: B1 chain with K40L, K41Q
B21: K11H (designed binder)
chain: B1 chain with K11H, K40L
B22: A63S (designed binder)
chain: B1 chain with K40L, A63S
B23: I87A (designed binder)
chain: B1 chain with K40L, I87A
B24: E22D (designed binder)
chain: B1 chain with E22D, K40L
B25: K100Q (designed binder)
chain: B1 chain with K40L, K100Q
B26: R66S (designed binder)
chain: B1 chain with K40L, R66S
B27: T97G (designed binder)
chain: B1 chain with K40L, T97G
B28: E45G (designed binder)
chain: B1 chain with K40L, E45G
B29: K107T (designed binder)
chain: B1 chain with K40L, K107T
B30: K71F (designed binder)
chain: B1 chain with K40L, K71F
B31: K23I (designed binder)
chain: B1 chain with K23I, K40L
B32: E86I (designed binder)
chain: B1 chain with K40L, E86I
B33: E4S (designed binder)
chain: B1 chain with E4S, K40L
B34: E103G (designed binder)
chain: B1 chain with K40L, E103G
B35: T97K (designed binder)
chain: B1 chain with K40L, T97K
B36: L25C (designed binder)
chain: B1 chain with L25C, K40L
B37: E78F (designed binder)
chain: B1 chain with K40L, E78F
B38: I98K (designed binder)
chain: B1 chain with K40L, I98K
B39: K16R (designed binder)
chain: B1 chain with K16R, K40L
B40: L28R (designed binder)
chain: B1 chain with L28R, K40L

Positions count from the first letter of the chain named. In names and notes the source's numbering stands.

This assay has as its target T1, TNFR1. The assay is described as follows: yeast display SC50.
On to B1, for which the “apparent Kd (screen)” value came to 0.446 nM.

For B2, the “apparent Kd (screen)” value amounted to 0.869 nM.

On to B3, for which the “apparent Kd (screen)” value is 6.43 nM.

Turning to B4, the “apparent Kd (screen)” value was 22.2 nM.

As to B5, the “apparent Kd (screen)” value amounted to 0.446 nM.

Take B6: the “apparent Kd (screen)” value was found to be 1.27 nM.

As for B7, the “apparent Kd (screen)” value came out at 1.86 nM.

In the case of B8, the “apparent Kd (screen)” value is 12.5 nM.

Turning to B9, the “apparent Kd (screen)” value turned out to be 0.405 nM.

As for B10, the “apparent Kd (screen)” value was 1.05 nM.

Take B11: the “apparent Kd (screen)” value came out at 7.07 nM.

Take B12: the “apparent Kd (screen)” value was 3 nM.

For B13, the “apparent Kd (screen)” value came to 1.05 nM.

With B14, the “apparent Kd (screen)” value was 4.39 nM.

Regarding B15, the “apparent Kd (screen)” value worked out at 1.05 nM.

Turning to B16, the “apparent Kd (screen)” value turned out to be 1.16 nM.

As for B17, the “apparent Kd (screen)” value came out at 11.4 nM.

B18: the “apparent Kd (screen)” value was found to be 3 nM.

Consider B19, for which the “apparent Kd (screen)” value was 3 nM.

Take B20: the “apparent Kd (screen)” value came out at 0.718 nM.

As to B21, the “apparent Kd (screen)” value was 0.956 nM.

Take B22: the “apparent Kd (screen)” value turned out to be 3.99 nM.

For B23, the “apparent Kd (screen)” value was found to be 13.8 nM.

For B24, the “apparent Kd (screen)” value turned out to be 0.49 nM.

For B25, the “apparent Kd (screen)” value worked out at 0.539 nM.

With B26, the “apparent Kd (screen)” value was 7.07 nM.

As to B27, the “apparent Kd (screen)” value was found to be 1.86 nM.

B28: the “apparent Kd (screen)” value came out at 2.05 nM.

As for B29, the “apparent Kd (screen)” value worked out at 0.869 nM.

For the molecule B30, the “apparent Kd (screen)” value turned out to be 2.48 nM.

Regarding B31, the “apparent Kd (screen)” value is 0.539 nM.

As for B32, the “apparent Kd (screen)” value is 1.69 nM.

Consider B33, for which the “apparent Kd (screen)” value turned out to be 0.539 nM.

Take B34: the “apparent Kd (screen)” value is 0.539 nM.

Take B35: the “apparent Kd (screen)” value is 0.539 nM.

For the molecule B36, the “apparent Kd (screen)” value was determined as 1.4 nM.

Turning to B37, the “apparent Kd (screen)” value was 0.49 nM.

As for B38, the “apparent Kd (screen)” value was found to be 4.83 nM.

In the case of B39, the “apparent Kd (screen)” value came to 1.4 nM.

B40: the “apparent Kd (screen)” value was 1.86 nM.
